Measured values as given in the supplement of paper PMC11246515.
± gives the standard deviation of the averaged measurements.

Experiment: total protein half-life in vivo (active degradation + dilution); higher = more stable protein
[1] = E. coli NCM3722 delta-hslV, growth: N-lim chemostat, doubling time 6 h
[2] = E. coli NCM3722 delta-smpB, growth: N-lim chemostat, doubling time 6 h
[3] = wild type E. coli NCM3722, growth: C-lim chemostat, doubling time 3 h
[4] = wild type E. coli NCM3722, growth: C-lim chemostat, doubling time 6 h
[5] = wild type E. coli NCM3722, growth: C-lim chemostat, doubling time 12 h
[6] = wild type E. coli NCM3722, growth: N-lim chemostat, doubling time 6 h
[7] = wild type E. coli NCM3722, growth: P-lim chemostat, doubling time 12 h
[8] = E. coli NCM3722 delta-clpP delta-lon delta-hslV, growth: N-lim chemostat, doubling time 6 h
[9] = E. coli NCM3722 delta-lon, growth: N-lim chemostat, doubling time 6 h
[10] = wild type E. coli NCM3722, growth: N-lim chemostat, doubling time 12 h
[11] = wild type E. coli NCM3722, growth: P-lim chemostat, doubling time 6 h
[12] = E. coli NCM3722 delta-clpP, growth: N-lim chemostat, doubling time 6 h

Row | Sequence | total protein half-life in vivo [1] [h] | total protein half-life in vivo [2] [h] | total protein half-life in vivo [3] [h] | total protein half-life in vivo [4] [h] | total protein half-life in vivo [5] [h] | total protein half-life in vivo [6] [h] | total protein half-life in vivo [7] [h] | total protein half-life in vivo [8] [h] | total protein half-life in vivo [9] [h] | total protein half-life in vivo [10] [h] | total protein half-life in vivo [11] [h] | total protein half-life in vivo [12] [h]
1 | MKKLTIGLIGNPNSGKTTLFNQLTGSRQRVGNWAGVTVERKEGQFSTTDHQVTLVDLPGTYSLTTISSQTSLDEQIACHYILSGDADLLINVVDASNLERNLYLTLQLLELGIPCIVALNMLDIAEKQNIRIEIDALSARLGCPVIPLVSTRGRGIEALKLAIDRYKANENVELVHYAQPLLNEADSLAKVMPSDIPLKQRRWLGLQMLEGDIYSRAYAGEASQHLDAALARLRNEMDDPALHIADARYQCIAAICDVVSNTLTAEPSRFTTAVDKIVLNRFLGLPIFLFVMYLMFLLAINIGGALQPLFDVGSVALFVHGIQWIGYTLHFPDWLTIFLAQGLGGGINTVLPLVPQIGMMYLFLSFLEDSGYMARAAFVMDRLMQALGLPGKSFVPLIVGFGCNVPSVMGARTLDAPRERLMTIMMAPFMSCGARLAIFAVFAAAFFGQNGALAVFSLYMLGIVMAVLTGLMLKYTIMRGEATPFVMELPVYHVPHVKSLIIQTWQRLKGFVLRAGKVIIIVSIFLSAFNSFSLSGKIVDNINDSALASVSRVITPVFKPIGVHEDNWQATVGLFTGAMAKEVVVGTLNTLYTAENIQDEEFNPAEFNLGEELFSAIDETWQSLKDTFSLSVLMNPIEASKGDGEMGTGAMGVMDQKFGSAAAAYSYLIFVLLYVPCISVMGAIARESSRGWMGFSILWGLNIAYSLATLFYQVASYSQHPTYSLVCILAVILFNIVVIGLLRRARSRVDIELLATRKSVSSCCAASTTGDCH | 0.616 | 0.941 ± 0.47 | 0.812 ± 0.12 | 0.749 | 1.58 ± 0.19 | 0.841 | 4.22 | – | – | – | – | –
2 | MARINRISITLCALLFTTLPLTPMAHASKQARESSATTHITKKADKKKSTATTKKTQKTAKKAASKSTTKSKTASSVKKSSITASKNAKTRSKHAVNKTASASFTEKCTKRKGYKSHCVKVKNAASGTLADAHKAKVQKATKVAMNKLMQQIGKPYRWGGSSPRTGFDCSGLVYYAYKDLVKIRIPRTANEMYHLRDAAPIERSELKNGDLVFFRTQGRGTADHVGVYVGNGKFIQSPRTGQEIQITSLSEDYWQRHYVGARRVMTPKTLR | 3.67 | – | 2.57 ± 0.19 | 5.435 ± 0.027 | 9.36 ± 4.5 | 2.63 ± 0.55 | 6.68 ± 0.86 | > 8 | 2.15 | 6.47 ± 1.8 | 3.69 ± 0.066 | –
3 | MYQHHNWQGALLDYPVSKVVCVGSNYAKHIKEMGSAVPEEPVLFIKPETALCDLRQPLAIPSDFGSVHHEVELAVLIGATLRQATEEHVRKAIAGYGVALDLTLRDVQGKMKKAGQPWEKAKAFDNSCPLSGFIPAAEFTGDPQNTTLSLSVNGEQRQQGTTADMIHKIVPLIAYMSKFFTLKAGDVVLTGTPDGVGPLQSGDELTVTFDGHSLTTRVL | 5.44 ± 0.96 | 4.95 ± 0.3 | 3.26 ± 0.39 | 6.22 ± 0.61 | 11.2 ± 0.037 | 5.18 ± 0.86 | 12.6 ± 0.54 | 6.01 ± 0.48 | 5.67 ± 0.93 | 10.1 ± 0.033 | 5.856 ± 0.052 | 4.64 ± 0.98
4 | MTSGLERLSNLLSKKDSVFVSDLLREAKVNELDETLSTTRLNHLIDKGYERITLQLDLGGESPGYLEKDKHYREADAALLNVIYPTNLSKINTRRKEQV | – | – | – | – | – | – | – | 4.54 | – | – | – | –
5 | MEITEPRRLYQQLAADLKERIEQGVYLVGDKLPAERFIADEKNVSRTVVREAIIMLEVEGYVEVRKGSGIHVVSNQPRHQQAADNNMEFANYGPFELLQARQLIESNIAEFAATQVTKQDIMKLMAIQEQARGEQCFRDSEWDLQFHIQVALATQNSALAAIVEKMWTQRSHNPYWKKLHEHIDSRTVDNWCDDHDQILKALIRKDPHAAKLAMWQHLENTKIMLFNETSDDFEFNADRYLFAENPVVHLDTATSGSK [P0ACL2] | 1.94 ± 0.086 | 2.12 ± 0.16 | 1.97 ± 0.099 | 3.7 ± 0.26 | 5.16 ± 0.083 | 1.97 ± 0.043 | 4.91 ± 0.27 | 5.59 ± 0.086 | 2.4 ± 0.26 | 2.59 ± 0.37 | 2.99 ± 0.29 | 4.22 ± 0.52
6 | MSKGTTSQDAPFGTLLGYAPGGVAIYSSDYSSLDPQEYEDDAVFRSYIDDEYMGHKWQCVEFARRFLFLNYGVVFTDVGMAWEIFSLRFLREVVNDNILPLQAFPNGSPRAPVAGALLIWDKGGEFKDTGHVAIITQLHGNKVRIAEQNVIHSPLPQGQQWTRELEMVVENGCYTLKDTFDDTTILGWMIQTEDTEYSLPQPEIAGELLKISGARLENKGQFDGKWLDEKDPLQNAYVQANGQVINQDPYHYYTITESAEQELIKATNELHLMYLHATDKVLKDDNLLALFDIPKILWPRLRLSWQRRRHHMITGRMDFCMDERGLKVYEYNADSASCHTEAGLILERWAEQGYKGNGFNPAEGLINELAGAWKHSRARPFVHIMQDKDIEENYHAQFMEQALHQAGFETRILRGLDELGWDAAGQLIDGEGRLVNCVWKTWAWETAFDQIREVSDREFAAVPIRTGHPQNEVRLIDVLLRPEVLVFEPLWTVIPGNKAILPILWSLFPHHRYLLDTDFTVNDELVKTGYAVKPIAGRCGSNIDLVSHHEEVLDKTSGKFAEQKNIYQQLWCLPKVDGKYIQVCTFTVGGNYGGTCLRGDESLVIKKESDIEPLIVVKK [P0AES0] | 4.62 ± 0.18 | 4.58 ± 0.23 | 3 ± 0.4 | 5.17 ± 0.38 | 10.6 ± 0.36 | 4.645 ± 0.024 | 11.2 ± 0.72 | 5 ± 0.066 | 6.12 ± 1.3 | 8.42 ± 0.4 | 5.85 ± 0.5 | 4.62 ± 0.17
7 | MTIKNKMLLGALLLVTSAAWAAPATAGSTNTSGISKYELSSFIADFKHFKPGDTVPEMYRTDEYNIKQWQLRNLPAPDAGTHWTYMGGAYVLISDTDGKIIKAYDGEIFYHR | 6.26 ± 0.2 | 6.59 ± 0.59 | 3.09 ± 0.24 | 5.37 ± 0.16 | 8.3 ± 1.4 | 6.03 ± 0.036 | 13.4 ± 2.4 | 5.04 ± 0.4 | 5.84 ± 0.39 | 11.5 ± 0.32 | 5.446 ± 0.049 | 5.973 ± 0.043
